# Reference: paper PMC4344524, “Combinatorial recognition of a complex telomere repeat sequence by the Candida parapsilosis Cdc13AB heterodimer”
# T1: CpCdc13AB heterodimer: His6-SUMO-Cdc13A + GST-Cdc13B-FLAG (Candida parapsilosis, UniProt G8B7U9;G8B5A5 1-456;1-475)
# T1 sequence 1: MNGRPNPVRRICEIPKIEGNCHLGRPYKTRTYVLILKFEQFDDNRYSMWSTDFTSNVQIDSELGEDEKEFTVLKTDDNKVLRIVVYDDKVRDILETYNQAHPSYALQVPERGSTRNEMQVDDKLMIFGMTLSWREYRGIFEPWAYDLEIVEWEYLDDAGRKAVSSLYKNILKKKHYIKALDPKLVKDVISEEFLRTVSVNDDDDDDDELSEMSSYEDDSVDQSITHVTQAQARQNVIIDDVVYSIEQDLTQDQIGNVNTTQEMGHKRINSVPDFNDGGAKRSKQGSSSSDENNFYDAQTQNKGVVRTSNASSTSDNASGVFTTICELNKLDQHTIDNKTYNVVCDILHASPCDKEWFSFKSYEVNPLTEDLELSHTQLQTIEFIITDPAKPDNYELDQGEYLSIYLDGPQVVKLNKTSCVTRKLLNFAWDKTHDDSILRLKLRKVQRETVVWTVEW
# T1 sequence 2: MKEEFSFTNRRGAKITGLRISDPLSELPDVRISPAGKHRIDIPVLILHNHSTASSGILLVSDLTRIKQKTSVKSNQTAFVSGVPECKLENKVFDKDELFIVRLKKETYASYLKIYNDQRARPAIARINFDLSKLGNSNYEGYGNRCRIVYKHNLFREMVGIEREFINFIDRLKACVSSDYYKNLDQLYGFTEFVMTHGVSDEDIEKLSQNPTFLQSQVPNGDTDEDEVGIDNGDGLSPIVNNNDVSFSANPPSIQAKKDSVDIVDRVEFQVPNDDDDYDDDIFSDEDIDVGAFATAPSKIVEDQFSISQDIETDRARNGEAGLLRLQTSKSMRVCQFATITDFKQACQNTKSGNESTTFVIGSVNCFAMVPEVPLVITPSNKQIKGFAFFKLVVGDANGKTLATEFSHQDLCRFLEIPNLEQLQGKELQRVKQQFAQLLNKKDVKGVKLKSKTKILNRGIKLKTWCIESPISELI
# Key:
# [1] = target: CpCdc13AB-DBD complex (Candida parapsilosis) (UniProt G8B7U9+G8B5A5); assay: EMSA; conditions: stated as full-length Kd (~10 nM) at least 100-fold lower; weak shift detected; EMSA: 50 mM Tris-HCl pH 7.5, 2 mM MgCl2, 10 mM NaCl, 1 mM spermidine, 1 mM DTT, 200 ng/ul poly(dI-dC), 5% glycerol, 25 C 60 min; crosslinking: same buffer …
# [2] = target: T1, CpCdc13AB heterodimer: His6-SUMO-Cdc13A …; assay: EMSA; apparent Kd; EMSA: 50 mM Tris-HCl pH 7.5, 2 mM MgCl2, 10 mM NaCl, 1 mM spermidine, 1 mM DTT, 200 ng/ul poly(dI-dC), 5% glycerol, 25 C 60 min; crosslinking: same buffer, 22 C 1 h, then UV on ice 20 min; conditions: protein: recombinant; tags: His6-SUMO (A); GST and FLAG (B); copies: 1;1
# [3] = target: T1, CpCdc13AB heterodimer: His6-SUMO-Cdc13A …; assay: competition; vs CpG2 probe; EMSA: 50 mM Tris-HCl pH 7.5, 2 mM MgCl2, 10 mM NaCl, 1 mM spermidine, 1 mM DTT, 200 ng/ul poly(dI-dC), 5% glycerol, 25 C 60 min; crosslinking: same buffer, 22 C 1 h, then UV on ice 20 min; conditions: protein: recombinant; tags: His6-SUMO (A); GST and FLAG (B); copies: 1;1
# [4] = target: T1, CpCdc13AB heterodimer: His6-SUMO-Cdc13A …; assay: competition; affinity unaffected; EMSA: 50 mM Tris-HCl pH 7.5, 2 mM MgCl2, 10 mM NaCl, 1 mM spermidine, 1 mM DTT, 200 ng/ul poly(dI-dC), 5% glycerol, 25 C 60 min; crosslinking: same buffer, 22 C 1 h, then UV on ice 20 min; conditions: protein: recombinant; tags: His6-SUMO (A); GST and FLAG (B); copies: 1;1
# [5] = target: T1, CpCdc13AB heterodimer: His6-SUMO-Cdc13A …; assay: competition; no effect; EMSA: 50 mM Tris-HCl pH 7.5, 2 mM MgCl2, 10 mM NaCl, 1 mM spermidine, 1 mM DTT, 200 ng/ul poly(dI-dC), 5% glycerol, 25 C 60 min; crosslinking: same buffer, 22 C 1 h, then UV on ice 20 min; conditions: protein: recombinant; tags: His6-SUMO (A); GST and FLAG (B); copies: 1;1
# [6] = target: T1, CpCdc13AB heterodimer: His6-SUMO-Cdc13A …; assay: UV photo-crosslinking; lower product level than IO-1 and IO-3; EMSA: 50 mM Tris-HCl pH 7.5, 2 mM MgCl2, 10 mM NaCl, 1 mM spermidine, 1 mM DTT, 200 ng/ul poly(dI-dC), 5% glycerol, 25 C 60 min; crosslinking: same buffer, 22 C 1 h, then UV on ice 20 min; conditions: protein: recombinant; tags: His6-SUMO (A); GST and FLAG (B); copies: 1;1; label: 32P
# [7] = target: T1, CpCdc13AB heterodimer: His6-SUMO-Cdc13A …; assay: competition; no effect of truncation; EMSA: 50 mM Tris-HCl pH 7.5, 2 mM MgCl2, 10 mM NaCl, 1 mM spermidine, 1 mM DTT, 200 ng/ul poly(dI-dC), 5% glycerol, 25 C 60 min; crosslinking: same buffer, 22 C 1 h, then UV on ice 20 min; conditions: protein: recombinant; tags: His6-SUMO (A); GST and FLAG (B); copies: 1;1
# [8] = target: T1, CpCdc13AB heterodimer: His6-SUMO-Cdc13A …; assay: EMSA; EMSA: 50 mM Tris-HCl pH 7.5, 2 mM MgCl2, 10 mM NaCl, 1 mM spermidine, 1 mM DTT, 200 ng/ul poly(dI-dC), 5% glycerol, 25 C 60 min; crosslinking: same buffer, 22 C 1 h, then UV on ice 20 min; conditions: protein: recombinant; tags: His6-SUMO (A); GST and FLAG (B); copies: 1;1
# [9] = target: T1, CpCdc13AB heterodimer: His6-SUMO-Cdc13A …; assay: competition; vs CpG2 probe; EMSA: 50 mM Tris-HCl pH 7.5, 2 mM MgCl2, 10 mM NaCl, 1 mM spermidine, 1 mM DTT, 200 ng/ul poly(dI-dC), 5% glycerol, 25 C 60 min; crosslinking: same buffer, 22 C 1 h, then UV on ice 20 min; conditions: protein: recombinant; tags: His6-SUMO (A); GST and FLAG (B); copies: 1;1; remark: listed apart in the source
# [10] = target: T1, CpCdc13AB heterodimer: His6-SUMO-Cdc13A …; assay: UV photo-crosslinking; Cdc13A adducts; EMSA: 50 mM Tris-HCl pH 7.5, 2 mM MgCl2, 10 mM NaCl, 1 mM spermidine, 1 mM DTT, 200 ng/ul poly(dI-dC), 5% glycerol, 25 C 60 min; crosslinking: same buffer, 22 C 1 h, then UV on ice 20 min; conditions: protein: recombinant; tags: His6-SUMO (A); GST and FLAG (B); copies: 1;1; label: 32P
# [11] = target: T1, CpCdc13AB heterodimer: His6-SUMO-Cdc13A …; assay: UV photo-crosslinking; mostly Cdc13B adducts; EMSA: 50 mM Tris-HCl pH 7.5, 2 mM MgCl2, 10 mM NaCl, 1 mM spermidine, 1 mM DTT, 200 ng/ul poly(dI-dC), 5% glycerol, 25 C 60 min; crosslinking: same buffer, 22 C 1 h, then UV on ice 20 min; conditions: protein: recombinant; tags: His6-SUMO (A); GST and FLAG (B); copies: 1;1; label: 32P
# [12] = target: T1, CpCdc13AB heterodimer: His6-SUMO-Cdc13A …; assay: competition; inactive as competitor; EMSA: 50 mM Tris-HCl pH 7.5, 2 mM MgCl2, 10 mM NaCl, 1 mM spermidine, 1 mM DTT, 200 ng/ul poly(dI-dC), 5% glycerol, 25 C 60 min; crosslinking: same buffer, 22 C 1 h, then UV on ice 20 min; conditions: protein: recombinant; tags: His6-SUMO (A); GST and FLAG (B); copies: 1;1
molecule,measurement,setting,value
ATTATACTGAGGTCCGGATGTTG [CpG1],Kd,[1],> 1000 nM
ATTATACTGAGGTCCGGATGTTGATTATACTGAGGTCCGGATGTTG (ssDNA) [CpG2],Kd,[2],~7.07 nM
GATCATTGGTGTACGGATGTCACGATCATTGGTGTACGGATGTCAC (ssDNA) [CtG2],binding result,[3],no binding
ATTATACTGAGGTCCGGATGTCA (ssDNA) [CpG1-Ct4],binding result,[4],binds
CGATTACTGAGGTCCGGATGTTG (ssDNA) [CpG1-Ct1],binding result,[4],binds
ATTACATTGAGGTCCGGATGTTG (ssDNA) [CpG1-Ct2],binding result,[5],binds
"ATTATACTGAGGTCCGGATGTTG (ssDNA, 5-iodo-dU at T13 of CpG1) [IO-2]",binding result,[6],binds
TACTGAGGTCCGGATGTTG (ssDNA) [CpG1-Δ1],binding result,[7],binds
CCGGATGTTGATTATACTGAGGT (ssDNA) [CpG1b],binding result,[3],no binding
ATTATACTGAGGTCCGGATGTTG (ssDNA) [CpG1],Kd,[8],~10 nM
CTGATGTTCTTTAGGGAGGTACTGATGTTCTTTAGGGAGGTA (ssDNA) [ClG2],binding signal,[9],~20 fold higher concentration for 50% inhibition
"ATTATACTGAGGTCCGGATGTTG (ssDNA, 5-iodo-dU at T19 of CpG1) [IO-3]",binding result,[10],binds
"ATTATACTGAGGTCCGGATGTTG (ssDNA, 5-iodo-dU at T8 of CpG1) [IO-1]",binding result,[11],binds
ATTATACTGAGGTCCGGAT (ssDNA) [CpG1-Δ4],binding result,[12],no binding
GTGGGTGTGTGGGTGTGTGGGTGTGTGGGTGTGT (ssDNA) [ScTG34],binding result,[3],no binding
